Assay results as given in doi:10.1101/2023.07.08.548231.
Where “and” joins values, the source holds several entries; their conditions need not be identical. Equal values may be shown once.

Biological target: H2AK119Ub nucleosome (UniProt P04908)
Test: cryo-EM structure

Sequence of GST-SSX1 (human SSX1 residues 111-188 with an N-terminal GST tag) (Q16384 111-188): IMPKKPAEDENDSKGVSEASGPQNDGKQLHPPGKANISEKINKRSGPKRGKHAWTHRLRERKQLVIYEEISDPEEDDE

In the case of “GST-SSX1 (human SSX1 residues 111-188 with an N-terminal GST tag) (from UniProt Q16384 111-188) (domain or fragment)”, the stoichiometry N (SSX1 per nucleosome) is reported as 2 and 1.
